Results on eleven molecules are retold here after patent US20040214255A1 (MYRIAD GENETICS, published 2004).

Common to all, as to experiment: yeast two-hybrid
Test [1] addresses T1, Dynamin, amino acids 104-365 (human, UniProt Q05193 104-365).
T1 construct: range 104-365
T1 sequence (looked up): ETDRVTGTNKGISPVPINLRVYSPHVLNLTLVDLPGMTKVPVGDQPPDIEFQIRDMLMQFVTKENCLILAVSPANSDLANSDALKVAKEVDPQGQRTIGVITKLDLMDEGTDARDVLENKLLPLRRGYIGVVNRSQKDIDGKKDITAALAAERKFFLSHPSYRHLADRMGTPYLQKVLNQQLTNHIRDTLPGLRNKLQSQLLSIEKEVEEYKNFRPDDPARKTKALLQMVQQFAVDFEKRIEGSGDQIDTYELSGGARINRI
The text has this:
(§1) The new construct was selected directly in the yeast strain PNY200 for its ability to drive tryptophane synthesis (genotype of this strain: […] trp1-901 leu2-3,112 ura3-52 his3-200 ade2 gal4Δ gal80). In these yeast cells, the bait was produced as a C-terminal fusion protein with the DNA binding domain of the transcription factor Ga14 (amino acids 1 to 147). Prey libraries were transformed into the yeast strain BK100 (genotype of this strain: MATα trp1-901 leu2-3,112 ura3-52 his3-200 gal4Δ gal80 LYS2::GAL-HIS3 GAL2-ADE2 met2::GAL7-lacZ), and selected for the ability to drive leucine synthesis. In these yeast cells, each cDNA was expressed as a fusion protein with the transcription activation domain of the transcription factor Ga14 (amino acids 768 to 881) and a 9 amino acid hemagglutinin epitope tag. PNY200 cells (MATα mating type), expressing the bait, were then mated with BK100 cells (MATa mating type), expressing prey proteins from a prey library. The resulting diploid yeast cells expressing proteins interacting with the bait protein were selected for the ability to synthesize tryptophan, leucine, histidine, and adenine. DNA was prepared from each clone, transformed by electroporation into E. coli strain KC8 (Clontech KC8 electrocompetent cells, Catalog No. C2023-1), and the cells were selected on ampicillin-containing plates in the absence of either tryptophane (selection for the bait plasmid) or leucine (selection for the library plasmid). DNA for both plasmids was prepared and sequenced by the dideoxynucleotide chain termination method. The identity of the bait cDNA insert was confirmed and the cDNA insert from the prey library plasmid was identified using the BLAST program to search against public nucleotide and protein databases. Plasmids from the prey library were then individually transformed into yeast cells together with a plasmid driving the synthesis of lamin and 5 other test proteins, respectively, fused to the Ga14 DNA binding domain. Clones that gave a positive signal in the β-galactosidase assay were considered false-positives and discarded. […] Clones that gave a positive signal in the β-galactosidase assay were considered true positives.

In test [2] the target is T2, NuMA1, amino acids 185-361 (human, UniProt Q14980 185-361).
T2 construct: range 185-361; also called nuclear mitotic apparatus protein NuMA1
T2 sequence (looked up): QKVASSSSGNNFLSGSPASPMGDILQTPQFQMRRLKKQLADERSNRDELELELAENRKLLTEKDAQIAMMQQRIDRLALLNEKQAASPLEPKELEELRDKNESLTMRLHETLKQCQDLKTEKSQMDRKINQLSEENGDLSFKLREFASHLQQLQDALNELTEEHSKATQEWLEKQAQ
Excerpt: as §1

The target in test [3] is T3, Myosin Heavy Chain (Swiss Protein P13533), amino acids 1589-1909 (human, UniProt P13533 1589-1909).
T3 construct: range 1589-1909; also called cardiac muscle myosin heavy chain; MYSA
Excerpt: as §1

Test [4] concerns the target T4, BAP31, amino acids 111-247 (human, UniProt P51572 111-246).
T4 construct: range 111-247
T4 sequence (looked up): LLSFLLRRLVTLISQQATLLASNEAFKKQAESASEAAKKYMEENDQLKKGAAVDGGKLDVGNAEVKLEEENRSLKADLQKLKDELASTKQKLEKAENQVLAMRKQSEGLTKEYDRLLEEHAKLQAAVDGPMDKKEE
Excerpt: as §1

Test [5] has as its target T5, 14-3-3-Zeta, amino acids 79-246 (human, UniProt P63104 79-245).
T5 sequence: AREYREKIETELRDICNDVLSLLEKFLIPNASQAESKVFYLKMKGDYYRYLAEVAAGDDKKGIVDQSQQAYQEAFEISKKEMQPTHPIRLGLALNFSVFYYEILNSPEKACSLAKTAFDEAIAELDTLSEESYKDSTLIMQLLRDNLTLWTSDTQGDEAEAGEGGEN
Excerpt: as §1

For test [6], the target named is T6, 14-3-3-Eta, amino acids 91-246 (human, UniProt Q04917 91-246).
T6 construct: range 91-246
T6 sequence (looked up): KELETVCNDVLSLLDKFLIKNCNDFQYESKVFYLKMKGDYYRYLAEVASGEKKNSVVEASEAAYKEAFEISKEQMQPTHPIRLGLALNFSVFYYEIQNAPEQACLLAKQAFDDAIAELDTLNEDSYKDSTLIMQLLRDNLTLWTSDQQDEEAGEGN
Excerpt: as §1

The target in test [7] is T7, Alpha Acid Glucosidase (GAA), amino acids 513-953 (human, UniProt P10253 513-952).
T7 construct: range 513-953
Excerpt: as §1

Test [8] deals with T8, Insulin-Regulated Membrane-Spanning Aminopeptidase (IRAP), amino acids 129-473 (human, UniProt Q9UIQ6 129-473).
T8 construct: range 129-473; also called vp165; gp160
Excerpt: as §1

Test [9] deals with T9, NuMA1, amino acids 98-365 (human, UniProt Q14980 98-365).
T9 construct: range 98-365; also called nuclear mitotic apparatus protein NuMA1
T9 sequence (looked up): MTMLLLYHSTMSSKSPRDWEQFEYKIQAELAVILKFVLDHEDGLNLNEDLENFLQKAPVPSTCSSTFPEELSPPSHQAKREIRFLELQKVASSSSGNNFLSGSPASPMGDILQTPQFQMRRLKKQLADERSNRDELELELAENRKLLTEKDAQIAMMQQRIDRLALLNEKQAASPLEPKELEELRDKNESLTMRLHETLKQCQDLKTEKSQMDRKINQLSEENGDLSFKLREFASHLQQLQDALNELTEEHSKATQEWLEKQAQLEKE
Excerpt: as §1

In test [10] the target is T10, Dynamin, amino acids 250-700 (human, UniProt Q05193 250-700).
T10 construct: range 250-700
T10 sequence (looked up): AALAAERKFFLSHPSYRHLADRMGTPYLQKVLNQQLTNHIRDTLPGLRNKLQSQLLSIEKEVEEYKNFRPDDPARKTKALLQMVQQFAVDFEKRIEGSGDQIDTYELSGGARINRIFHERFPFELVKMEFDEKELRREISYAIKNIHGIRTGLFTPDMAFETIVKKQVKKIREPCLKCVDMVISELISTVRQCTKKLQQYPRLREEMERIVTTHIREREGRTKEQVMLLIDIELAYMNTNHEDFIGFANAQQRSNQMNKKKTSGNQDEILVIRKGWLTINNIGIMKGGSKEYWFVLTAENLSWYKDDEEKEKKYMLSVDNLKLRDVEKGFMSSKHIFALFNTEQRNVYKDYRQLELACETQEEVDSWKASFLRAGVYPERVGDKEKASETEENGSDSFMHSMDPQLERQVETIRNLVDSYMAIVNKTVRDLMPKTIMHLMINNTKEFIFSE
Excerpt: as §1

The target in test [11] is T11, Tropomyosin 3, amino acids 171-286 (human, UniProt P06753 171-285).
T11 construct: range 171-286
Excerpt: as §1

T11 sequence (P06753 171-285 limits assumed): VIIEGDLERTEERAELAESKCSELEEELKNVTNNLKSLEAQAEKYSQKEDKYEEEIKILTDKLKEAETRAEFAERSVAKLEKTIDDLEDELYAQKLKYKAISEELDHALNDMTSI
T3 sequence (P13533 1589-1909, one chain of several): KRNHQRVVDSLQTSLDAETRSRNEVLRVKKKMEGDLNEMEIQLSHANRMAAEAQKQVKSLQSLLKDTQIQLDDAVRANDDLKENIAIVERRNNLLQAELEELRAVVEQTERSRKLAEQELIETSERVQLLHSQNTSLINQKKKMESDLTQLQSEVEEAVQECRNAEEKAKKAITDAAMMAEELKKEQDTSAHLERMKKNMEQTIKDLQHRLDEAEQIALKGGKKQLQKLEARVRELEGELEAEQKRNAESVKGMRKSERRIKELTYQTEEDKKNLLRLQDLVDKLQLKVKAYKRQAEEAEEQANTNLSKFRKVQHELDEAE
T8 sequence (Q9UIQ6 129-473 limits assumed): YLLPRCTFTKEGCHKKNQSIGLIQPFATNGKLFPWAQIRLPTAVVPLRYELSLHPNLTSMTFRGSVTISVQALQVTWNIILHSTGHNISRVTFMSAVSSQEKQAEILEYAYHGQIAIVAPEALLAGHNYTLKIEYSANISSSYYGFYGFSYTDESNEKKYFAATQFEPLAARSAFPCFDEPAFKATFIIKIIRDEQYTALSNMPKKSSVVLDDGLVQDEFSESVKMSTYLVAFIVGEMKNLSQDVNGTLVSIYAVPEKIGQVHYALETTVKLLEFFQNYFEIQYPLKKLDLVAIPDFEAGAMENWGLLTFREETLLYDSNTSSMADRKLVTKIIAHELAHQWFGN
T7 sequence (P10253 513-952 limits assumed): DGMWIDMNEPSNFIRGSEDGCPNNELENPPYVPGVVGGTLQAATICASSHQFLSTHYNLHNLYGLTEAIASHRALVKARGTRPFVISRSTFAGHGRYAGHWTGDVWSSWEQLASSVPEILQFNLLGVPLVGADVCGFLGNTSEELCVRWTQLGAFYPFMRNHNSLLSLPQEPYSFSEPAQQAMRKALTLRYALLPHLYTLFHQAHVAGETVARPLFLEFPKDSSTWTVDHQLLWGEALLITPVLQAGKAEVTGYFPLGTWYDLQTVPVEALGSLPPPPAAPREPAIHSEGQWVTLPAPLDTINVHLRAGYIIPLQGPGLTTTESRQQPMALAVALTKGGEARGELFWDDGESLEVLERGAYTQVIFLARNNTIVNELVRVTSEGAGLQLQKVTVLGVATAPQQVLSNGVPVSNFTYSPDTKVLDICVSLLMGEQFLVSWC

B1: GLUT1, amino acids 463-492 (other, human, UniProt P11166 463-492, looked up)
chain: IASGFRQGGASQSDKTPEELFHPLGADSQV
notes: range 463-492; also called Glucose Transporter 1
With B1, the binding result in test [1] is “binds”.

B2: Akt kinase 1 (Akt1), amino acids 1-118 (enzyme, human, UniProt P31749 1-118, looked up)
chain: MSDVAIVKEGWLHKRGEYIKTWRPRYFLLKNDGTFIGYKERPQDVDQREAPLNNFSVAQCQLMKTERPRPNTFIIRCLQWTTVIERTFHVETPEEREEWTTAIQTVADGLKKQEEEEM
notes: range 1-118
For the molecule B2, in test [2], the binding result is given as “binds”.

B3: Glucose Transporter 1, amino acids 448-493 (other, human, UniProt P11166 448-492, looked up)
chain: TYFKVPETKGRTFDEIASGFRQGGASQSDKTPEELFHPLGADSQV
notes: range 448-493; also called GLUT1; Glut1
Regarding B3, the binding result in test [3] is reported as “binds”.

B4: Akt kinase 2 (Akt2), amino acids 276-408 (enzyme, human, UniProt P31751 276-408, looked up)
chain: IKLENLMLDKDGHIKITDFGLCKEGISDGATMKTFCGTPEYLAPEVLEDNDYGRAVDWWGLGVVMYEMMCGRLPFYNQDHERLFELILMEEIRFPRTLSPEAKSLLAGLLKKDPKQRLGGGPSDAKEVMEHRF
notes: range 276-408
Turning to B4, the binding result in test [4] was “binds”.

B5: PI-3K85, amino acids 1-50 (other, human, UniProt P27986 1-50, looked up)
chain: MSAEGYQYRALYDYKKEREEDIDLHLGDILTVNKGSLVALGFSDGQEARP
notes: range 1-50; also called p85 regulatory subunit of PI-3 kinase; PI-3 kinase p85
B5: the binding result in [5] and in test [6] was “binds” in each case.

B6: PI-3 kinase p110 subunit, amino acids 1-300 (enzyme)
chain: MCFSFIMPPAMADILDIWAVDSQIASDGSIPVDFLLPTGIYIQLEVPREATISYIKQMLWKQVHNYPMFNLLMDIDSYMFACVNQTAVYEELEDETRRLCDVRPFLPVLKLVTRSCDPGEKLDSKIGVLIGKGLHEFDSLKDPEVNEFRRKMRKFSEEKILSLVGLSWMDWLKQTYPPEHEPSIPENLEDKLYGGKLIVAVHFENCQDVFSFQVSPNMNPIKVNELAIQKRLTIHGKEDEVSPYDYVLQVSGRVEYVFGDHPLIQFQYIRNCVMNRALPHFILVECCKIKKMYEQEMIAI
notes: range 1-300; also called PI-3K110; p110 catalytic subunit of PI-3 kinase
For B6, in [7], the binding result is on record as “binds”.

B7: 14-3-3 Beta, amino acids 97-236 (other, human, UniProt P31946 97-236, looked up)
chain: NDVLELLDKYLIPNATQPESKVFYLKMKGDYFRYLSEVASGDNKQTTVSNSQQAYQEAFEISKKEMQPTHPIRLGLALNFSVFYYEILNSPEKACSLAKTAFDEAIAELDTLNEESYKDSTLIMQLLRDNLTLWTSENQG
notes: range 97-236
Consider B7, for which, in [8], the binding result was “binds”.

B8: Akt kinase 2 (Akt2), amino acids 1-152 (enzyme, human, UniProt P31751 1-152, looked up)
chain: MNEVSVIKEGWLHKRGEYIKTWRPRYFLLKSDGSFIGYKERPEAPDQTLPPLNNFSVAECQLMKTERPRPNTFVIRCLQWTTVIERTFHVDSPDEREEWMRAIQMVANSLKQRAPGEDPMDYKCGSPSDSSTTEEMEVAVSKARAKVTMNDF
notes: range 1-152
B8: in test [9], the binding result is “binds”.

B9: Proteosome Activator Subunit Psme3, amino acids 72-254 (other, human, UniProt P61289 72-254, looked up)
chain: LTNSHDGLDGPTYKKRRLDECEEAFQGTKVFVMPNGMLKSNQQLVDIIEKVKPEIRLLIEKCNTVKMWVQLLIPRIEDGNNFGVSIQEETVAELRTVESEAASYLDQISRYYITRAKLVSKIAKYPHVEDYRRTVTEIDEKEYISLRLIISELRNQYVTLHDMILKNIEKIKRPRSSNAETLY
notes: range 72-254
B9: the binding result in test [10] was “binds”.

B10: Clathrin Assembly Protein (CALM), amino acids 267-484 (other, human, UniProt Q13492 267-484, looked up)
chain: LSQAPSSLLDALEQHLASLEGKKIKDSTAASRATTLSNAVSSLASTGLSLTKVDEREKQAALEEEQARLKALKEQRLKELAKKPHTSLTTAASPVSTSAGGIMTAPAIDIFSTPSSSNSTSKLPNDLLDLQQPTFHPSVHPMSTASQVASTWGDPFSATVDAVDDAIPSLNPFLTKSSGDVHLSISSDVSTFTTRTPTHEMFVGFTPSPVAQPHPSAG
notes: range 267-484
Take B10: in test [10], the binding result is listed as “binds”.

B11: Glut4, amino acids 434-510 (other, human, UniProt P14672 434-509, looked up)
chain: IGMGFQYVAEAMGPYVFLLFAVLLLGFFIFTFLRVPETRGRTFDQISAAFHRTPSLLEQEVKPSTELEYLGPDEND
notes: range 434-510; also called Glucose Transporter 4
Turning to B11, the binding result in test [11] is recorded as “binds”.
